{"source": "patent US12723255B2", "about": "“Herbicide tolerance genes and methods of use thereof” (priority 2014, dated 2026)", "key": {"[1]": {"system": "F1 hybrid maize plants", "experiment": "efficacy field trial for 2,4-D tolerance", "assay_type": "in vivo", "details": "scale 0 to 100, with CTP unless label says no CTP; for average injury rating, V4 Growth Stage, 8x 2,4-D / average injury rating, V8 Growth Stage, 8x 2,4-D: 8 lb ae/acre at VE-V2, V4, V8; for average injury rating, V4 Growth Stage, 16x 2,4-D / average injury rating, V8 Growth Stage, 16x 2,4-D: 16 lb ae/acre at VE-V2, V4, V8", "procedure": "(§1) Separate trait efficacy field trials for quizalofop-P and 2,4-D were conducted at two locations cach with F1 hybrid transgenic plants produced by crossing an inbred plant containing maize event MON89034 with an R1 plant containing MON-HT55 (with a CTP), MON-HTI (with or without a CTP), MON-HT2 (with or without a CTP), MON-HT3 (with a CTP), MON-HT4 (with a CTP), MON-HT5 (with a CTP), MON-HT6 (with a CTP), or MON-HT7 (with a CTP). Transgenic F1 hybrid plants containing maize events NK603×MON89034 were used for comparison as a control.\nIn the efficacy field trial for 2,4-D tolerance, one of four herbicide treatments was used: (1) 2,4-D amine at 2 lb ac/acre (2×) plus 0.25% v/v non-ionic surfactant (NIS) applied to VE to V2 followed by V4 followed by V8; (2) 2,4-D amine at 4 lb ac/acre (4×) plus 0.25% v/v NIS applied to VE to V2 followed by V4 followed by V8; (3) 2,4-D amine at 8 lb ac/acre (8×) plus 0.25% v/v NIS applied to VE to V2 followed by V4 followed by V8 maize; or (4) 2,4-D amine at 16 lb ac/acre (16×) plus 0.25% v/v NIS applied to VE to V2 followed by V4 followed by V8. Plots were visually rated as above. Tables 14 and 15 show the average injury ratings after herbicide application at V4 or V8 growth stage, respectively."}, "[2]": {"assay_type": "physicochemical", "summary_of_the_method": "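Thermal shift assay: purified enzyme in 30 mM Tris pH7.5, 150 mM NaCl, with or without 50 uM Fe2+ and 1.0 mM aKG. Unfolding followed by SYPRO orange fluorescence from 10° C. to 95° C. in 0.5° C. steps; melting temperature (T1/2) taken from the curve.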"}, "[3]": {"experiment": "enzyme activity assay at 23° C. with purified enzyme", "assay_type": "biochemical", "details": "wild-type set at 100%", "procedure": "The enzyme activity of MON-HT protein variants with haloxyfop, fenoxaprop, fluazifop, and dichlorprop as substrates was determined using the enzyme activity assay conducted at 23° C. with purified enzyme. The activity was recorded as the maximum activity as a percentage of the wild-type enzyme's activity, which was set at 100%."}, "[4]": {"system": "F1 hybrid maize plants", "experiment": "efficacy field trial for quizalofop-P tolerance and clethodim sensitivity", "assay_type": "in vivo", "details": "scale 0 to 100; for average injury rating, V4 Growth Stage, 4x Quizalofop / average injury rating, V8 Growth Stage, 4x Quizalofop: 0.32 lb ai/acre at VE-V2, V4, V8; for average injury rating, V4 Growth Stage, 4x Quizalofop / average injury rating, V8 Growth Stage, 4x Quizalofop / average injury rating, V4 Growth Stage, 8x Quizalofop / average injury rating, V8 Growth Stage, 8x Quizalofop / average injury rating, V4 Growth Stage, 16x Quizalofop / average injury rating, V8 Growth Stage, 16x Quizalofop: with CTP unless label says no CTP; for average injury rating, V4 Growth Stage, 8x Quizalofop / average injury rating, V8 Growth Stage, 8x Quizalofop: 0.64 lb ai/acre at VE-V2, V4, V8; for average injury rating, V4 Growth Stage, 16x Quizalofop / average injury rating, V8 Growth Stage, 16x Quizalofop: 1.28 lb ai/acre at VE-V2, V4, V8; for average injury rating, V8 Growth Stage, 1x Clethodim: clethodim 0.25 lb ai/acre at V8, volunteer control", "procedure": "as §1\nIn the efficacy field trial for quizalofop-P tolerance and clethodim sensitivity, one of four herbicide treatments was used: (1) quizalofop-P (Assure II) at 0.32 lb ai/acre (4×) plus 0.25% v/v non-ionic surfactant (NIS) applied at VE-V2 growth stage followed by the same at V4 growth stage followed by the same at V8 growth stage; (2) quizalofop-P at 0.64 lb ai/acre (8×) plus 0.25% v/v NIS applied at VE to V2 growth stage followed by the same at V4 growth stage followed by the same at V8 growth stage; (3) quizalofop-P at 1.28 lb ai/acre (16×) plus 0.25% v/v NIS applied at VE to V2 growth stage followed by the same at V4 growth stage followed by the same at V8growth stage; or (4) clethodim at 0.25 lb ai/acre (1×) plus 0.25% v/v NIS applied at V8 growth stage. Plots were visually rated 10-14 days after application for crop injury on a scale of 0 to 100with “0” being none and “100” being complete crop destruction. Tables 14 and 15 show the average injury ratings after herbicide application at V4 or V8 growth stage, respectively."}}, "data": [{"molecule": "MON-HT1: engineered oxygenase protein, amino acid sequence SEQ ID NO:14 (protein) MHAALTPLTNKYRFIDVQPLTGVLGAEITGVDLREPLDDSTWNEILDAFHTYQVIYFPGQAITNEQHIAFSRRFGPVDPVPILKSIEGYPEVQMIRREANESSRFIGDDWHTDSTFLDAPPAAVVMRAIEVPEYGGDTGFLSMYSAWETLSPTMQATIEGLNVVHSATKVFGSLYQATNWRFSNTSVKVMDVDAGDRETVHPLVVTHPVTGRRALYCNQVYCQKIQGMTDAESKSLLQFLYEHATKFDFTCRVRWKKDQVLVWDNLCTMHRAVPDYAGKFRYLTRTTVAGDKPSR", "values": [{"measurement": "average injury rating, V4 Growth Stage, 2x 2,4-D", "setting": "[1]; 2 lb ae/acre at VE-V2, V4, V8", "result": 0.0}, {"measurement": "average injury rating, V8 Growth Stage, 2x 2,4-D", "setting": "[1]; 2 lb ae/acre at VE-V2, V4, V8", "result": 1.3}, {"measurement": "average injury rating, V8 Growth Stage, 2x 2,4-D", "setting": "[1]; 2 lb ae/acre at VE-V2, V4, V8, listed as MON-HT1 (no CTP)", "result": 2.5}, {"measurement": "average injury rating, V4 Growth Stage, 4x 2,4-D", "setting": "[1]; 4 lb ae/acre at VE-V2, V4, V8", "result": 0.0}, {"measurement": "average injury rating, V8 Growth Stage, 4x 2,4-D", "setting": "[1]; 4 lb ae/acre at VE-V2, V4, V8", "result": 1.5}, {"measurement": "average injury rating, V8 Growth Stage, 4x 2,4-D", "setting": "[1]; 4 lb ae/acre at VE-V2, V4, V8, listed as MON-HT1 (no CTP)", "result": 4.0}, {"measurement": "average injury rating, V4 Growth Stage, 8x 2,4-D", "setting": "[1]", "result": 5.0}, {"measurement": "average injury rating, V8 Growth Stage, 8x 2,4-D", "setting": "[1]", "result": 8.3}, {"measurement": "average injury rating, V4 Growth Stage, 8x 2,4-D", "setting": "[1]; listed as MON-HT1 (no CTP)", "result": 5.8}, {"measurement": "average injury rating, V8 Growth Stage, 8x 2,4-D", "setting": "[1]; listed as MON-HT1 (no CTP)", "result": 8.8}, {"measurement": "average injury rating, V4 Growth Stage, 16x 2,4-D", "setting": "[1]", "result": 6.3}, {"measurement": "average injury rating, V8 Growth Stage, 16x 2,4-D", "setting": "[1]", "result": 16.3}, {"measurement": "average injury rating, V4 Growth Stage, 16x 2,4-D", "setting": "[1]; listed as MON-HT1 (no CTP)", "result": 12.5}, {"measurement": "average injury rating, V8 Growth Stage, 16x 2,4-D", "setting": "[1]; listed as MON-HT1 (no CTP)", "result": 13.8}, {"measurement": "Melting temp, Buffer", "setting": "[2]; Table 11 series", "result": 58, "unit": "°C"}, {"measurement": "Melting temp, Buffer plus Fe2+ and aKG", "setting": "[2]; Table 11 series", "result": 62, "unit": "°C"}, {"measurement": "T1/2, temperature where 50% of the protein was unfolded, Buffer plus Fe2+ and aKG", "setting": "[2]; buffer", "result": 59, "unit": "°C"}, {"measurement": "T1/2, temperature where 50% of the protein was unfolded, Buffer", "setting": "[2]; buffer, pH 7.5", "result": 56, "unit": "°C"}, {"measurement": "maximum activity as a percentage of the wild-type enzyme's activity, Fluazifop", "setting": "[3]", "result": 67, "unit": "%"}, {"measurement": "average injury rating, V4 Growth Stage, 4x Quizalofop", "setting": "[4]", "result": 0.0}, {"measurement": "average injury rating, V8 Growth Stage, 4x Quizalofop", "setting": "[4]", "result": 2.0}, {"measurement": "average injury rating, V4 Growth Stage, 4x Quizalofop", "setting": "[4]; listed as MON-HT1 (no CTP)", "result": 5.8}, {"measurement": "average injury rating, V8 Growth Stage, 4x Quizalofop", "setting": "[4]; listed as MON-HT1 (no CTP)", "result": 3.3}, {"measurement": "average injury rating, V4 Growth Stage, 8x Quizalofop", "setting": "[4]", "result": 0.8}, {"measurement": "average injury rating, V8 Growth Stage, 8x Quizalofop", "setting": "[4]", "result": 2.0}, {"measurement": "average injury rating, V4 Growth Stage, 8x Quizalofop", "setting": "[4]; listed as MON-HT1 (no CTP)", "result": 11.3}, {"measurement": "average injury rating, V8 Growth Stage, 8x Quizalofop", "setting": "[4]; listed as MON-HT1 (no CTP)", "result": 7.5}, {"measurement": "average injury rating, V4 Growth Stage, 16x Quizalofop", "setting": "[4]", "result": 4.5}, {"measurement": "average injury rating, V8 Growth Stage, 16x Quizalofop", "setting": "[4]", "result": 5.5}, {"measurement": "average injury rating, V4 Growth Stage, 16x Quizalofop", "setting": "[4]; listed as MON-HT1 (no CTP)", "result": 18.8}, {"measurement": "average injury rating, V8 Growth Stage, 16x Quizalofop", "setting": "[4]; listed as MON-HT1 (no CTP)", "result": 16.3}, {"measurement": "average injury rating, V8 Growth Stage, 1x Clethodim", "setting": "[4]", "result": 93.3}, {"measurement": "average injury rating, V8 Growth Stage, 1x Clethodim", "setting": "[4]; listed as MON-HT1 (no CTP)", "result": 94.5}]}]}
